Results as given in paper PMC10757926 (2023).
Numbering of substitutions follows the chain as printed. In names and notes the source's numbering stands.

B1: hSIRPα Nb S41 (VHH)
VHH: HVQLVESGGGLVQPGGSLRLSCAASGETLDYYAIGYVRQAPGKEREGVSCISSRGDNTNYADSVKGRFTISRDNANNTVYLQMNSLKPEDTAVYYCVAIKDSWQNYYCSVGWVEYDVWGQGTQVTVSS
B2: hSIRPα Nb S7 (VHH)
VHH: HVQLVESGGGLVQVGDSLRLSCAPSGRTFRAYAMAWFRQAPGKEREFVAAIRWIGGTPSYKDSVKGRFTISRDNARNTFYLQMNSLEPQDTGVYYCAAEETQKGSGLGHDGRHYDYWGQGTPVTVSS
B3: hSIRPα-S36 Nb (VHH)
VHH: EVQLVESGGGLVQPGGSLRLSCAASGFTLDYYAIGWFRQVPGKEREGVSCISSDGGGNTYYADSVKGRFTISRDNAKNTVYLQMNSLKPEDSAVYSCAAGPTYYSGSYCRDPHSDYDYWGQGTQVTVSS
B4: hSIRPα Nb S12 (VHH)
VHH: QVQLVESGGGLVQPGGSLRLSCLVSGFSSSYYAIGWFRQAPGKEREGVSCITRSGDTTNYADSVKGRFTISRDDARNTVYLQMNSLKTEDTAVYSCALWAWAGSGRLRCTASEYGHWGQGTQVTVSS
B5: hSIRPα Nb S44 (VHH)
VHH: QVQLQESGGGLVQPGGSLRLACAASGFTFSSYDMSWVRQAPGKGLEWVSDIKSGGGRTYYADSVKGRFTISRDNAKNTVYLQMNSLKPEDTAVYYCGSLDNSGAYTGGGQGSQVTVSS
B6: hSIRPα Nb S45 (VHH)
VHH: HVQLVESGGGLVQPGGSLRLSCAARGFSFRDSAMSWARQAPGKGLEWVGAIYSDGSTVYEKSVKGRFTISRDNAKNTMYLQMHSLKPEDSARYYCAPKGVVADEGDYSGQGTLVTVSS
B7: hSIRPα Nb S17 (VHH)
VHH: QVQLVESGGGLVQPGGSLRLSCAASGFTLDSYVIGWFRQAPGKEREGVSCISQRIGSTDYADSVKGRFTISKDNAKNTAYLQMNALKPEDTAVYYCAAGRLYYSGTYCPQGGMSYWGKGSPVTVSS
B8: hSIRPα Nb S14 (VHH)
VHH: EVQLVESGGGLVQPGGSLRLSCAASGFTANSYRMTWVRQAPGKGLEWVADIGTGNEWKYYPDSVKGRFTISRDAAKNTVYLQMNSLKPEDTAVYYCAKNGAVWYGEDGLDYWGKGTLVTVSS
B9: hSIRPα Nb S43 (VHH)
VHH: HVQLVESGGGLVQPGGSARLSCAASGFDLDYFAIGWFRQAPGKEREGVSCISTRSETTNYVDSVKGRFTISRDNAISTVYLQMNNLKPEDTAVYYCAADWADWTMTGCQMTWDDYNYWGQGAQVTVSS
B10: hSIRPα Nb S33 (VHH)
VHH: EVQLVESGGGLVQPGGSLRLSCTTSGFTLDYYSVGWFRQAPGKEREGVSCITASGSSTNYANSVKGRFTISRDKVKNTVYLQMSSLKPEDTAVYYCAAEPCTVVAGILQAPTSDFGSWGQGTQVTVSS
B11: hSIRPα Nb S8 (VHH)
VHH: QVQLVESGGGLVQPGGSLRLSCADSEFRLDEYATGWFRQAPGKEREGVACISRSGSNTKYTDSVKGRFTISRDNAKKTVYLQMNSLKPEDTAVYYCAADLTSHYLSCSSYTDYNSWGQGTQVTVSS
B12: hSIRPα Nb S29 (VHH)
VHH: EVQLVESGGGLVQPGGSLRLSCAASGFTSETYAIGWFRQAPGKEREGVSCISNDGGSRNYADSVKGRFTISRDNAKNTSYLQMNSLKPEDTAVYYCAAGKYYYCLGYVSDGMDYWGKGTPVTVSS
B13: hSIRPα-S36K>R Nb (VHH)
VHH: B3 VHH with K43R, K66R, K77R, K88R
B14: hSIRPα Nb S21 (VHH)
VHH: DVQLVESGGGLVQPGGSLTLSCAASGFTSGTYALAYFRQAPGKEREGVSCISNDGGSRNYADSVKGRFTISRDNAKNTMYLQMNSLKPEDTAVYYCAAGPWYYCSDFARRPDGMDYWGKGTPVTVSS

biological target: T1, biotinylated recombinant hSIRPα (extracellular portion) (human, UniProt P78324 31-373, biotin (Sulfo-NHS-LC-LC-Biotin)); assay: BLI
T1 sequence (P78324 31-373): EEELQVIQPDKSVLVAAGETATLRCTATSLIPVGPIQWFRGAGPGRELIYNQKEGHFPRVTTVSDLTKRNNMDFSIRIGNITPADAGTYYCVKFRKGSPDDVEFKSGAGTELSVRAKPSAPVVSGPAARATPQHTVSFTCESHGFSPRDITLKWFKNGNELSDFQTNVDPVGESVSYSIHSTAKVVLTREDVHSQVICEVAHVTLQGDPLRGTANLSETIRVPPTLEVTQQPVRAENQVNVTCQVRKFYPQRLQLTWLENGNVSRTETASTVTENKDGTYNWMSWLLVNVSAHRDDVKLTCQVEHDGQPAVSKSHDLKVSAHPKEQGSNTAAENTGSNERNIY

Binder | koff
B1 | 0.00383 s⁻¹
B2 | 0.0123 s⁻¹
B3 | 0.0002 s⁻¹
B4 | 0.0127 s⁻¹
B5 | 0.00915 s⁻¹
B6 | 0.00164 s⁻¹
B7 | 0.00458 s⁻¹
B8 | 0.00376 s⁻¹
B9 | 0.131 s⁻¹
B10 | 0.00544 s⁻¹
B11 | 0.0009 s⁻¹
B12 | 0.00462 s⁻¹

biological target: T1, biotinylated recombinant hSIRPα …; assay: BLI; remark: another data set of the same source

Binder | Kd
B13 | 0.19 nM

biological target: T1, biotinylated recombinant hSIRPα …; assay: BLI; remark: another data set of the same source

Binder | Kd
B1 | 5.65 nM
B2 | 20 nM
B3 | 0.12 nM
B4 | 25.9 nM
B5 | 4.61 nM
B6 | 2.53 nM
B7 | 26.6 nM
B8 | 16.7 nM
B9 | 99 nM
B10 | 20 nM
B11 | 0.46 nM
B14 | 2.56 nM
B12 | 4.78 nM
